The values that follow come from patent US20040208873A1.

The target in this assay is recombinant human IL-8, 72 aa form (monocyte derived) (human) (UniProt P10145). The experiment in a line: cell-based or functional assay.
Chain of recombinant human IL-8, 72 aa form (monocyte derived) (human) (P10145 28-99 limits assumed): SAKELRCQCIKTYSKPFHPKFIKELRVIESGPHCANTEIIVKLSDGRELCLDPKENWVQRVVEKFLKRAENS

“irrelevant human isotype control antibody (Example 8)”: the expression level of CD11b on IL-8 stimulated PMN (MFI, flow cytometry) was determined as 2400 MFI and the expression of CD62L on IL-8 stimulated PMN (MFI, flow cytometry) is 150 MFI.
